The values that follow come from publication PMC10540216, “Activity Guided Azide-methyllysine Photo-trapping for Substrate Profiling of Lysine Demethylases” (Journal of the American Chemical Society, 2023).

B1: SF3B1_HUMAN (protein, UniProt O75533 1-1304, looked up)
Splicing factor 3B subunit 1: MAKIAKTHEDIEAQIREIQGKKAALDEAQGVGLDSTGYYDQEIYGGSDSRFAGYVTSIAATELEDDDDDYSSSTSLLGQKKPGYHAPVALLNDIPQSTEQYDPFAEHRPPKIADREDEYKKHRRTMIISPERLDPFADGGKTPDPKMNARTYMDVMREQHLTKEEREIRQQLAEKAKAGELKVVNGAAASQPPSKRKRRWDQTADQTPGATPKKLSSWDQAETPGHTPSLRWDETPGRAKGSETPGATPGSKIWDPTPSHTPAGAATPGRGDTPGHATPGHGGATSSARKNRWDETPKTERDTPGHGSGWAETPRTDRGGDSIGETPTPGASKRKSRWDETPASQMGGSTPVLTPGKTPIGTPAMNMATPTPGHIMSMTPEQLQAWRWEREIDERNRPLSDEELDAMFPEGYKVLPPPAGYVPIRTPARKLTATPTPLGGMTGFHMQTEDRTMKSVNDQPSGNLPFLKPDDIQYFDKLLVDVDESTLSPEEQKERKIMKLLLKIKNGTPPMRKAALRQITDKAREFGAGPLFNQILPLLMSPTLEDQERHLLVKVIDRILYKLDDLVRPYVHKILVVIEPLLIDEDYYARVEGREIISNLAKAAGLATMISTMRPDIDNMDEYVRNTTARAFAVVASALGIPSLLPFLKAVCKSKKSWQARHTGIKIVQQIAILMGCAILPHLRSLVEIIEHGLVDEQQKVRTISALAIAALAEAATPYGIESFDSVLKPLWKGIRQHRGKGLAAFLKAIGYLIPLMDAEYANYYTREVMLILIREFQSPDEEMKKIVLKVVKQCCGTDGVEANYIKTEILPPFFKHFWQHRMALDRRNYRQLVDTTVELANKVGAAEIISRIVDDLKDEAEQYRKMVMETIEKIMGNLGAADIDHKLEEQLIDGILYAFQEQTTEDSVMLNGFGTVVNALGKRVKPYLPQICGTVLWRLNNKSAKVRQQAADLISRTAVVMKTCQEEKLMGHLGVVLYEYLGEEYPEVLGSILGALKAIVNVIGMHKMTPPIKDLLPRLTPILKNRHEKVQENCIDLVGRIADRGAEYVSAREWMRICFELLELLKAHKKAIRRATVNTFGYIAKAIGPHDVLATLLNNLKVQERQNRVCTTVAIAIVAETCSPFTVLPALMNEYRVPELNVQNGVLKSLSFLFEYIGEMGKDYIYAVTPLLEDALMDRDLVHRQTASAVVQHMSLGVYGFGCEDSLNHLLNYVWPNVFETSPHVIQAVMGALEGLRVAIGPCRMLQYCLQGLFHPARKVRDVYWKIYNSIYIGSQDALIAHYPRIYNDDKNTYIRYELDYIL
B2: TR150_HUMAN (protein, UniProt Q9Y2W1 2-955, looked up)
Thyroid hormone …: SKTNKSKSGSRSSRSRSASRSRSRSFSKSRSRSRSLSRSRKRRLSSRSRSRSYSPAHNRERNHPRVYQNRDFRGHNRGYRRPYYFRGRNRGFYPWGQYNRGGYGNYRSNWQNYRQAYSPRRGRSRSRSPKRRSPSPRSRSHSRNSDKSSSDRSRRSSSSRSSSNHSRVESSKRKSAKEKKSSSKDSRPSQAAGDNQGDEAKEQTFSGGTSQDTKASESSKPWPDATYGTGSASRASAVSELSPRERSPALKSPLQSVVVRRRSPRPSPVPKPSPPLSSTSQMGSTLPSGAGYQSGTHQGQFDHGSGSLSPSKKSPVGKSPPSTGSTYGSSQKEESAASGGAAYTKRYLEEQKTENGKDKEQKQTNTDKEKIKEKGSFSDTGLGDGKMKSDSFAPKTDSEKPFRGSQSPKRYKLRDDFEKKMADFHKEEMDDQDKDKAKGRKESEFDDEPKFMSKVIGANKNQEEEKSGKWEGLVYAPPGKEKQRKTEELEEESFPERSKKEDRGKRSEGGHRGFVPEKNFRVTAYKAVQEKSSSPPPRKTSESRDKLGAKGDFPTGKSSFSITREAQVNVRMDSFDEDLARPSGLLAQERKLCRDLVHSNKKEQEFRSIFQHIQSAQSQRSPSELFAQHIVTIVHHVKEHHFGSSGMTLHERFTKYLKRGTEQEAAKNKKSPEIHRRIDISPSTFRKHGLAHDEMKSPREPGYKAEGKYKDDPVDLRLDIERRKKHKERDLKRGKSRESVDSRDSSHSRERSAEKTEKTHKGSKKQKKHRRARDRSRSSSSSSQSSHSYKAEEYTEETEEREESTTGFDKSRLGTKDFVGPSERGGGRARGTFQFRARGRGWGRGNYSGNNNNNSNNDFQKRNREEEWDPEYTPKSKKYYLHDDREGEGSDKWVSRGRGRGAFPRGRGRFMFRKSSTSPKWAHDKFSGEEGEIEDDESGTENREEKDNIQPTTE
B3: RRP44_HUMAN (protein, UniProt Q9Y2L1 1-958, looked up)
Exosome complex exonuclease …: MLKSKTFLKKTRAGGVMKIVREHYLRDDIGCGAPGCAACGGAHEGPALEPQPQDPASSVCPQPHYLLPDTNVLLHQIDVLEDPAIRNVIVLQTVLQEVRNRSAPVYKRIRDVTNNQEKHFYTFTNEHHRETYVEQEQGENANDRNDRAIRVAAKWYNEHLKKMSADNQLQVIFITNDRRNKEKAIEEGIPAFTCEEYVKSLTANPELIDRLACLSEEGNEIESGKIIFSEHLPLSKLQQGIKSGTYLQGTFRASRENYLEATVWIHGDNEENKEIILQGLKHLNRAVHEDIVAVELLPKSQWVAPSSVVLHDEGQNEEDVEKEEETERMLKTAVSEKMLKPTGRVVGIIKRNWRPYCGMLSKSDIKESRRHLFTPADKRIPRIRIETRQASTLEGRRIIVAIDGWPRNSRYPNGHFVRNLGDVGEKETETEVLLLEHDVPHQPFSQAVLSFLPKMPWSITEKDMKNREDLRHLCICSVDPPGCTDIDDALHCRELENGNLEVGVHIADVSHFIRPGNALDQESARRGTTVYLCEKRIDMVPELLSSNLCSLKCDVDRLAFSCIWEMNHNAEILKTKFTKSVINSKASLTYAEAQLRIDSANMNDDITTSLRGLNKLAKILKKRRIEKGALTLSSPEVRFHMDSETHDPIDLQTKELRETNSMVEEFMLLANISVAKKIHEEFSEHALLRKHPAPPPSNYEILVKAARSRNLEIKTDTAKSLAESLDQAESPTFPYLNTLLRILATRCMMQAVYFCSGMDNDFHHYGLASPIYTHFTSPIRRYADVIVHRLLAVAIGADCTYPELTDKHKLADICKNLNFRHKMAQYAQRASVAFHTQLFFKSKGIVSEEAYILFVRKNAIVVLIPKYGLEGTVFFEEKDKPNPQLIYDDEIPSLKIEDTVFHVFDKVKVKIMLDSSNLQHQKIRMSLVEPQIPGISIPTDTSNMDLNGPKKKKMKLGK
B4: SF3B3_HUMAN (protein, UniProt Q15393 1-1217, looked up)
Splicing factor 3B subunit 3: MFLYNLTLQRATGISFAIHGNFSGTKQQEIVVSRGKILELLRPDPNTGKVHTLLTVEVFGVIRSLMAFRLTGGTKDYIVVGSDSGRIVILEYQPSKNMFEKIHQETFGKSGCRRIVPGQFLAVDPKGRAVMISAIEKQKLVYILNRDAAARLTISSPLEAHKANTLVYHVVGVDVGFENPMFACLEMDYEEADNDPTGEAAANTQQTLTFYELDLGLNHVVRKYSEPLEEHGNFLITVPGGSDGPSGVLICSENYITYKNFGDQPDIRCPIPRRRNDLDDPERGMIFVCSATHKTKSMFFFLAQTEQGDIFKITLETDEDMVTEIRLKYFDTVPVAAAMCVLKTGFLFVASEFGNHYLYQIAHLGDDDEEPEFSSAMPLEEGDTFFFQPRPLKNLVLVDELDSLSPILFCQIADLANEDTPQLYVACGRGPRSSLRVLRHGLEVSEMAVSELPGNPNAVWTVRRHIEDEFDAYIIVSFVNATLVLSIGETVEEVTDSGFLGTTPTLSCSLLGDDALVQVYPDGIRHIRADKRVNEWKTPGKKTIVKCAVNQRQVVIALTGGELVYFEMDPSGQLNEYTERKEMSADVVCMSLANVPPGEQRSRFLAVGLVDNTVRIISLDPSDCLQPLSMQALPAQPESLCIVEMGGTEKQDELGERGSIGFLYLNIGLQNGVLLRTVLDPVTGDLSDTRTRYLGSRPVKLFRVRMQGQEAVLAMSSRSWLSYSYQSRFHLTPLSYETLEFASGFASEQCPEGIVAISTNTLRILALEKLGAVFNQVAFPLQYTPRKFVIHPESNNLIIIETDHNAYTEATKAQRKQQMAEEMVEAAGEDERELAAEMAAAFLNENLPESIFGAPKAGNGQWASVIRVMNPIQGNTLDLVQLEQNEAAFSVAVCRFSNTGEDWYVLVGVAKDLILNPRSVAGGFVYTYKLVNNGEKLEFLHKTPVEEVPAAIAPFQGRVLIGVGKLLRVYDLGKKKLLRKCENKHIANYISGIQTIGHRVIVSDVQESFIWVRYKRNENQLIIFADDTYPRWVTTASLLDYDTVAGADKFGNICVVRLPPNTNDEVDEDPTGNKALWDRGLLNGASQKAEVIMNYHVGETVLSLQKTTLIPGGSESLVYTTLSGGIGILVPFTSHEDHDFFQHVEMHLRSEHPPLCGRDHLSFRSYYFPVKNVIDGDLCEQFNSMEPNKQKNVSEELDRTPPEVSKKLEDIRTRYAF
B5: IPO5_HUMAN (protein, UniProt O00410 2-1097, looked up)
Importin-5: AAAAAEQQQFYLLLGNLLSPDNVVRKQAEETYENIPGQSKITFLLQAIRNTTAAEEARQMAAVLLRRLLSSAFDEVYPALPSDVQTAIKSELLMIIQMETQSSMRKKVCDIAAELARNLIDEDGNNQWPEGLKFLFDSVSSQNVGLREAALHIFWNFPGIFGNQQQHYLDVIKRMLVQCMQDQEHPSIRTLSARATAAFILANEHNVALFKHFADLLPGFLQAVNDSCYQNDDSVLKSLVEIADTVPKYLRPHLEATLQLSLKLCGDTSLNNMQRQLALEVIVTLSETAAAMLRKHTNIVAQTIPQMLAMMVDLEEDEDWANADELEDDDFDSNAVAGESALDRMACGLGGKLVLPMIKEHIMQMLQNPDWKYRHAGLMALSAIGEGCHQQMEGILNEIVNFVLLFLQDPHPRVRYAACNAVGQMATDFAPGFQKKFHEKVIAALLQTMEDQGNQRVQAHAAAALINFTEDCPKSLLIPYLDNLVKHLHSIMVLKLQELIQKGTKLVLEQVVTSIASVADTAEEKFVPYYDLFMPSLKHIVENAVQKELRLLRGKTIECISLIGLAVGKEKFMQDASDVMQLLLKTQTDFNDMEDDDPQISYMISAWARMCKILGKEFQQYLPVVMGPLMKTASIKPEVALLDTQDMENMSDDDGWEFVNLGDQQSFGIKTAGLEEKSTACQMLVCYAKELKEGFVEYTEQVVKLMVPLLKFYFHDGVRVAAAESMPLLLECARVRGPEYLTQMWHFMCDALIKAIGTEPDSDVLSEIMHSFAKCIEVMGDGCLNNEHFEELGGILKAKLEEHFKNQELRQVKRQDEDYDEQVEESLQDEDDNDVYILTKVSDILHSIFSSYKEKVLPWFEQLLPLIVNLICPHRPWPDRQWGLCIFDDVIEHCSPASFKYAEYFLRPMLQYVCDNSPEVRQAAAYGLGVMAQYGGDNYRPFCTEALPLLVRVIQSADSKTKENVNATENCISAVGKIMKFKPDCVNVEEVLPHWLSWLPLHEDKEEAVQTFNYLCDLIESNHPIVLGPNNTNLPKIFSIIAEGEMHEAIKHEDPCAKRLANVVRQVQTSGGLWTECIAQLSPEQQAAIQELLNSA

The assay relates to KDM4A-I71AzF. In words: CASI: photo-crosslinking with HEK293T cell extracts, StrepTactin enrichment and LC-MS/MS proteomics.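 Note: lysates from HEK293T cells pretreated with a KDM4 inhibitor to raise proteome methylation, affinity-purified after ±UV, gel-resolved, trypsin-digested, with exclusive unique peptides per protein averaged per condition.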 Format: binding, human. The settings on record: sheet "Final results but with 0.01".
Consider B1, for which the “Fold change (+UV/-UV)” value is recorded as 2.

Consider B2, for which the “Fold change (+UV/-UV)” value came to 1.333.

As for B3, the “Fold change (+UV/-UV)” value was found to be 0.6.

For B4, the “Fold change (+UV/-UV)” value is recorded as 0.7381.

Regarding B5, the “Fold change (+UV/-UV)” value came to 1.
